Residue numbers refer to the chain shown, from its start.
T1: recombinant human E-cadherin (R&D Systems 648-EC-100) (human, UniProt P12830 155-707)
T1 construct: Bought protein
T1 sequence (looked up): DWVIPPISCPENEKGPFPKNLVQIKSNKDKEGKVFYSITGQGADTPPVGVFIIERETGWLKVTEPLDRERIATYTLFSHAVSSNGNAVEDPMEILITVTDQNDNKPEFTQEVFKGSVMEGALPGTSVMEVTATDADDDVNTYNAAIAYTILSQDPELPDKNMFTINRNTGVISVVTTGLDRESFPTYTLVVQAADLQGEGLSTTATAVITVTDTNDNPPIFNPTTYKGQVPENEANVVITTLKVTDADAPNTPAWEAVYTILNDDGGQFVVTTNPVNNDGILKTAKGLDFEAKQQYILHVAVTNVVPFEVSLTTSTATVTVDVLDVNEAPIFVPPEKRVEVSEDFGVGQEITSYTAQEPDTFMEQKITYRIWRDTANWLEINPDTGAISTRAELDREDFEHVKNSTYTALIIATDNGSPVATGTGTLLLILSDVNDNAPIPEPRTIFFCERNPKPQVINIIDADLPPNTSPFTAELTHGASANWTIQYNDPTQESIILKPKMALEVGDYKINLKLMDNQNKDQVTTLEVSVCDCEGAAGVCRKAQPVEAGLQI

T2: mouse P-cadherin/Fc fusion protein (mouse, UniProt P10287 100-647, limits assumed)
T2 construct: also called mCad/Fc; not shown: Fc part of the fusion protein
T2 sequence (looked up): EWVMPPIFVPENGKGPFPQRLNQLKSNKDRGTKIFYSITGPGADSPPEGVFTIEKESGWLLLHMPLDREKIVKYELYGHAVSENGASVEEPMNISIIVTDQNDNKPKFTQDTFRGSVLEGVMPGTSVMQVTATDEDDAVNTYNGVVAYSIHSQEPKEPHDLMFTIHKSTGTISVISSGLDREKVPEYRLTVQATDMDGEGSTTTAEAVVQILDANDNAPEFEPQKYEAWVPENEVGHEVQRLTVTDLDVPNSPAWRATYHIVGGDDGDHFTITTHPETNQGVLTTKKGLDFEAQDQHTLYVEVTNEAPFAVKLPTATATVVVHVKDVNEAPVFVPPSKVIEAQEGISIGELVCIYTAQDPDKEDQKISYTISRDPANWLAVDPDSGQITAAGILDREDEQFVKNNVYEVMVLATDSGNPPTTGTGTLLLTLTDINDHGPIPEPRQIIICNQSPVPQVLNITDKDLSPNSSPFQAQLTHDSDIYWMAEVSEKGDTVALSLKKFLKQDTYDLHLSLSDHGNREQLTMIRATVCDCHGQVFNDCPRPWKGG

B1: 129-1c4 (antibody, V domains shown)
VH: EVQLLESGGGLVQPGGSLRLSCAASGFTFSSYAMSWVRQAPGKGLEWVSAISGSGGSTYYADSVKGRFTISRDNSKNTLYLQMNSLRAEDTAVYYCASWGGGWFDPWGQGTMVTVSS
VL: QSALTQPASVSGSPGQSITISCTGTSNDVGAYNYVSWYQQHPGKAPKLILSEVNKRPSGVSNRFSGSKSGNTASLSISGLQAEDEADYYCSSFTSGSTFMLFGGGTKLTVL
notes: also called parent IgG
B2: scFv variant of 129-1c4 with VH CDR3 SEQ ID NO: 163 and VL CDR3 SEQ ID NO: 43 (scFv, V domains shown)
VH: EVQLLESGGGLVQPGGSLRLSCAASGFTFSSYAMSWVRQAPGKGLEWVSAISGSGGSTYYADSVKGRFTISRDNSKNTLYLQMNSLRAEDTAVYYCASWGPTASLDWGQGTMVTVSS
VL: B1 VL with S91T, F93Y, S95M
notes: His-tagged purified scFv; also called 163 / 43
B3: scFv variant of 129-1c4 with VH CDR3 SEQ ID NO: 207 and VL CDR3 SEQ ID NO: 291 (scFv, V domains shown)
VH: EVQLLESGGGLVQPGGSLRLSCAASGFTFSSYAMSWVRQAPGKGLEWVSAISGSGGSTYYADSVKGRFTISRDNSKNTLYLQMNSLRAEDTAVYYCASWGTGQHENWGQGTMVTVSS
VL: B1 VL with M100N
notes: His-tagged purified scFv; also called 207 / 291
B4: 196-d10 (antibody, V domains shown)
VH: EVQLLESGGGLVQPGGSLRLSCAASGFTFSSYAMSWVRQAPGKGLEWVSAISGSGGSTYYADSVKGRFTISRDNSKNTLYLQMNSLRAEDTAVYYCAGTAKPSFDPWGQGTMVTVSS
VL: B1 VL with S91T, F93Y, S95M
notes: Tested as IgG converted from scFv; also called 196-d10 IgG
B5: 194-e01 (antibody, V domains shown)
VH: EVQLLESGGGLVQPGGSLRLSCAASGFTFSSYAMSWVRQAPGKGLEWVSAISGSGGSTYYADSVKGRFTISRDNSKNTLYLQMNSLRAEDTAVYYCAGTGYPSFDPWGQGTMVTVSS
VL: B1 VL with D87G, S91T, F93Y, T94R, S95A
notes: Tested as IgG converted from scFv
B6: 194-g09 scFv (scFv, V domains shown)
VH: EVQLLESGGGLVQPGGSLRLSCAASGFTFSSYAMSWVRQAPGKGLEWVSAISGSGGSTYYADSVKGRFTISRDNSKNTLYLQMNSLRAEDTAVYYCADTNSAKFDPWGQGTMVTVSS
VL: B1 VL with Q40R, D87E, F93Y, S95M
notes: Single chain Fv in the assay
B7: 195-a09 (antibody, V domains shown)
VH: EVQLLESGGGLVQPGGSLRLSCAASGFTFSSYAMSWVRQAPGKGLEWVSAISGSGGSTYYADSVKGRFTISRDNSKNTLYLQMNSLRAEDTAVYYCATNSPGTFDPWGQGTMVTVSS
VL: B1 VL with S91T, F93Y, S95M
notes: Tested as IgG converted from scFv; also called 195-a09 IgG
B8: 196-e06 (antibody, V domains shown)
VH: EVQLLESGGGLVQPGGSLRLSCAASGFTFSSYAMSWVRQAPGKGLEWVSAISGSGGSTYYADSVKGRFAISRDNSKNTLYLQMNSLRAEDTAVYYCAGSRTVQFDPWGQGTMVTVSS
VL: B1 VL with S91T, F93Y, S95M
notes: Tested as IgG converted from scFv; also called 196-e06 IgG
B9: 196-g03 scFv (scFv, V domains shown)
VH: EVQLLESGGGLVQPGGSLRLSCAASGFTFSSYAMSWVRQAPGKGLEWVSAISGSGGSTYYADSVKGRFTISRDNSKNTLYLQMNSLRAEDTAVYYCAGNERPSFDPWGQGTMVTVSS
VL: B1 VL with S91T, F93Y, S95M
notes: Single chain Fv in the assay
B10: 198-a09 (antibody, V domains shown)
VH: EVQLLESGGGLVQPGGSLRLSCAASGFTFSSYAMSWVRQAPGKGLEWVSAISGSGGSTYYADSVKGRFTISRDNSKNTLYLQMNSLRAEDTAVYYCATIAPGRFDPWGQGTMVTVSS
VL: B1 VL with S13P, S91T, F93Y, S95M
notes: Tested as IgG converted from scFv; also called 198-a09 IgG
B11: g-194-g09 (antibody, V domains shown)
VH: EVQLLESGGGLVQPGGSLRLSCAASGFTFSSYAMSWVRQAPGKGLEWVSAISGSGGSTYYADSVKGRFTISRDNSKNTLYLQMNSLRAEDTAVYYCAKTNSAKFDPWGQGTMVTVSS
VL: B1 VL with I49M, L50I, S76T, F93Y, S95M
notes: Tested as IgG; also called germlined version of 194-g09
B12: g-196-g03 (antibody, V domains shown)
VH: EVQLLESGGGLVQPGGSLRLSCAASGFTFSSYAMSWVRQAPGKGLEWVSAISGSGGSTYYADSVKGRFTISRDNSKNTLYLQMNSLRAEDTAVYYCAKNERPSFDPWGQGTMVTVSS
VL: B1 VL with I49M, L50I, S76T, S91T, F93Y, S95M
notes: Tested as IgG; also called germlined version of 196-g03
B13: 194-a02 (antibody, V domains shown)
VH: not shown
VL: B1 VL with S97L, T98P, F99W, M100V
notes: as for B5
B14: 194-b09 scFv (scFv, V domains shown)
VH: not shown
VL: B1 VL with S97L, T98P, F99W, M100V, L101V
notes: Single chain Fv in the assay
B15: g-194-b09 (antibody, V domains shown)
VH: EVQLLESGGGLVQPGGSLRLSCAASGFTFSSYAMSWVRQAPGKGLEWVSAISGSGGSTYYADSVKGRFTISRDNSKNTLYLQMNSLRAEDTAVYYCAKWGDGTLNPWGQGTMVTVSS
VL: B1 VL with I49M, L50I, S76T, S97L, T98P, F99W, M100V, L101V
notes: Tested as IgG
B16: g-194-e06 (antibody, V domains shown)
VH: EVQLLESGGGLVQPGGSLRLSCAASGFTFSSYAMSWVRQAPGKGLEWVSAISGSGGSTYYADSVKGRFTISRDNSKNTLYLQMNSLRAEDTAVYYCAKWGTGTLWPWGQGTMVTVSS
VL: B1 VL with I49M, L50I, S76T, S97L, T98P, F99W, M100V
notes: Tested as IgG

Key:
[1] = target: T3, human P-cadherin on the surface of cells (human, UniProt P22223 108-829); assay: cell-based or functional assay
[2] = target: T3, human P-cadherin on the surface of cells; assay: cell-based or functional assay; remark: listed apart in the source
[3] = target: T3, human P-cadherin on the surface of cells; assay: epitope competition on A431 cells; competitor: biotinylated 129-1c4 IgG, DELFIA
[4] = target: T3, human P-cadherin on the surface of cells; assay: cell-based or functional assay; remark: listed apart in the source
[5] = target: T3, human P-cadherin on the surface of cells; assay: epitope competition on A431 cells; competitor: biotinylated 129-1c4 IgG at 3x KD, DELFIA
[6] = target: T4, Recombinant human P-cadherin Fc (R&D Systems 861-PC-100) (human, UniProt P22223 108-654); assay: ELISA; KD on E-cadherin over KD on P-cadherin
T4 construct: also called recombinant human P-cadherin/Fc fusion protein; hCad/Fc; not shown: Fc part of the bought fusion protein

[7] = target: T3, human P-cadherin on the surface of cells; assay: cell-based or functional assay; remark: listed apart in the source
[8] = target: T4, Recombinant human P-cadherin Fc (R&D …); assay: ELISA on coated antigen, relative KD
[9] = target: T1, recombinant human E-cadherin (R&D …); assay: ELISA on coated antigen, relative KD
[10] = target: T2, mouse P-cadherin/Fc fusion protein; assay: SPR (BIACORE 3000), mCad/Fc immobilised, scFv as analyte, 1:1 fit
[11] = target: T4, Recombinant human P-cadherin Fc (R&D …); assay: SPR (BIACORE 3000), hCad/Fc immobilised, scFv as analyte, 1:1 fit
[12] = target: T3, human P-cadherin on the surface of cells; assay: cell-based or functional assay; remark: listed apart in the source
[13] = target: T1, recombinant human E-cadherin (R&D …); assay: ELISA on coated E-cadherin, IgG titrated from 50 nM down to 0.64 nM

Row | Binder | SW480 Aggregation Assay Mean IC50 [1] [nM] | SW480 Spheroid Disruption Assay, Fold Increased Disruption vs Control at 5 nM [2] [fold] | KD(E)/KD(P) [6] | A431 Adhesion Assay Mean IC50 (nM) (n = 3) [7] | Kd [8] [nM] | Kd [9] [nM] | also measured
1 | B1 | 35 | 4 | – | – | – | – | IC50 [3]: 29 nM; IC50 in the A431 adhesion assay [4]: 1000 to 3000 nM
2 | B2 | – | – | – | – | – | – | IC50 [5]: 2.45 nM
3 | B3 | – | – | – | – | – | – | IC50 [5]: 2.73 nM
4 | B4 | 1.5 | 10 | 1.4 | 0.08 | 0.045 | 0.063 | –
5 | B5 | 1.3 | 16 | 183 | 0.147 | 0.112 | 20.5 | –
6 | B6 | – | – | – | – | – | – | Kd [10]: 1.8 nM; koff [10]: 0.00081 s⁻¹; Kd [11]: 2.6 nM; koff [11]: 0.0016 s⁻¹
7 | B7 | 1.7 | 10 | 96 | 0.114 | 0.12 | 11.5 | –
8 | B8 | 1.9 | 10 | 3 | 0.117 | 0.062 | 0.187 | –
9 | B9 | – | – | – | – | – | – | Kd [10]: 0.76 nM; koff [10]: 0.00047 s⁻¹; Kd [11]: 1.1 nM; koff [11]: 0.0007 s⁻¹
10 | B10 | 2.9 | 13 | 249 | 0.097 | 0.078 | 19.4 | –
11 | B11 | 2.6 | 14 | > 100 | – | 2.6 | – | A431 Adhesion Assay Mean IC50 (nM) (n = 2) [12]: 1 nM; binding result [13]: no binding (tested: 50 nM)
12 | B12 | 0.9 | 13 | 17 | – | 0.449 | 7.51 | A431 Adhesion Assay Mean IC50 (nM) (n = 2) [12]: 1.05 nM
13 | B13 | 1.1 | 10 | 6 | 0.217 | 0.116 | 0.682 | –
14 | B14 | – | – | – | – | – | – | Kd [10]: 11 nM
15 | B15 | 0.9 | 10 | 3 | – | 0.788 | 2.16 | A431 Adhesion Assay Mean IC50 (nM) (n = 2) [12]: 0.77 nM
16 | B16 | – | – | 4 | – | 0.191 | 0.794 | A431 Adhesion Assay Mean IC50 (nM) (n = 2) [12]: 0.77 nM

From US20060240001A1 (AGOURON PHARMACEUTICALS, published 2006)
